Source: patent US20020115216A1

Target: asialoglycoprotein receptor (UniProt P34927)
Assay: cell-based or functional assay

Chain of UniProt P34927 (P34927 whole entry, chain 1 of 2): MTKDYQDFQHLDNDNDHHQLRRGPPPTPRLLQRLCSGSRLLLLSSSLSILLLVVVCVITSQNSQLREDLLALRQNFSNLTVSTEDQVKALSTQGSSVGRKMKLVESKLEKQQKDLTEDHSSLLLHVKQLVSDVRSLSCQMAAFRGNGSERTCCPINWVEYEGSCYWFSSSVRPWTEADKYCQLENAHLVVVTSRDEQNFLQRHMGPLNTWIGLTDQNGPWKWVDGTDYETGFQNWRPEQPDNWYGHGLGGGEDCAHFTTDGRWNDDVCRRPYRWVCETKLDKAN
Chain of UniProt P34927 (P24721 whole entry, chain 2 of 2, further chain): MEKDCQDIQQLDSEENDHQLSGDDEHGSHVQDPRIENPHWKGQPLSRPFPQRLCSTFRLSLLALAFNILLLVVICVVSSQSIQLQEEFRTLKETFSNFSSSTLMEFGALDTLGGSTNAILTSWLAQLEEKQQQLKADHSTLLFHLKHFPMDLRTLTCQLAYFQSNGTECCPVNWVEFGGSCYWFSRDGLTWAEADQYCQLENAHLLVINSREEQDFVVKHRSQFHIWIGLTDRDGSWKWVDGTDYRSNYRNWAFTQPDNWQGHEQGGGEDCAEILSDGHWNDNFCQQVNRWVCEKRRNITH

inhibition of uptake/expression of the cis pT/GFP/SB in the liver (confocal microscopy of GFP, mice coadministered asialofetuin): > 80%
Substance: asialofetuin (from UniProt P12763 19-359) (ligand)
